Values joined by “and” are separate entries in the source; they are usually repeats but may differ in a detail not shown here. Identical values can stand only once.
Assays:
[1] = test system: receptor-negative human melanoma M21L cells; test: Cell uptake and internalization in M21L cells; assay type: cell-based; conditions: negative M21L cell line, 37 °C, 90 min
Experimental: Cell uptake and internalization studies were performed on receptor-positive human melanoma M21 (expressing high levels of αvβ3 integrin and moderate level of integrin αvβ5), human breast cancer MCF7 (exclusively expressing αvβ5), and receptor-negative human melanoma M21L cell lines. The expression of αvβ3 and αvβ5 by cells was already evaluated by flow cytometry (Table 2). The stability of each radiolabeled peptide in the culture media before and after cell exposure was assessed.
Experiments were conducted in suspension at 37 °C. The working conditions were set up to avoid cell damage and/or death. With the use of these information, the cells were pre-incubated in sterile glass tubes at 37 °C for 10 min, in the presence or not of cRGDfK pentapeptide (50 µL; 1.65 mM).
Then, 1 mL of the cell suspension (1 × 10^6 cells/mL) was incubated with intermittent agitation with 10 µL (10 µCi) of ^99mTc1–3. At 90 min, the cells were moved in Eppendorf microcentrifuge tubes (1.5 mL) and the incubation was interrupted by centrifugation (3000 rpm for 5 min at 10 °C). The supernatant (S1) was separated from the pellet. The cell pellet was treated 10 min at room temperature with saline acetate buffer (CH3COOH 0.2M/NaCl 0.5 M) to remove the membrane-bound compound. After centrifugation (3000 rpm for 10 min at 10 °C), the supernatant (S2) was separated from the pellet (P1), and each fraction was collected, placed in a separated counting tube, and the activity was measured using a NaI counter (Cobra II, Packard) to estimate both the cell uptake and the internalized fraction.
The uptake of complexes was expressed as percentage cell uptake of the total activity on 10^6 cells (% cell uptake/10^6 cells).
All assessments were conducted in triplicate for three experiments.

[2] = test system: M21 (αvβ3-positive) and M21L (αvβ3-negative) melanoma tumors; assay type: in vivo, NSG mice; conditions: 120 min p.i.; for M21L tumor uptake: integrin-negative M21L control tumor; for M21 tumor uptake: integrin-positive M21 xenograft; for Blood / Heart / Intestine / Kidneys / Liver / Lungs / Muscle / Spleen / Stomach: tumor-bearing mice
Experimental: In vivo tumor uptake. The in vivo integrin targeting properties of the [^99mTcN(PNP)]-labeled peptide were evaluated in M21 (integrin-positive) and M21L (integrin-negative) melanoma-bearing mice by comparing the percentage of tumor uptake of the three compounds in tumors and the respective target-to-non-target ratios. Biodistribution data outlined some differences in organ uptake compared with those attained in rats at the same injection time because the rate of metabolism is different in each animal species. […] The high renal uptake of radiotracers is partially due to their rate of excretion as well as to a specific uptake by integrins expression in the kidneys; for ^99mTc3, the M21-to-kidney ratio was 1.37.
Human melanoma M21(αvβ3-positive) were injected subcutaneously (s.c. 1 × 10^6 cells) in the right flank of six week-old male NSG mice (Charles River Laboratories). As a negative control, M21L (αvβ3-negative) were inoculated s.c. (1 × 10^6 cells) in the left flank of the same mice. Fifteen days after the inoculation, when the tumors are palpable (5–3 mm), the mice were injected in the tail vein with the selected radiolabeled peptide (20 µCi/100 µL of PBS). A group of six animals was sacrificed at 120 min p.i. by CO2 inhalation. A sample of blood was collected and tumors and normal tissues of interest were dissected, rinsed to remove the excess of blood, weighted, and their radioactivity measured using a NaI counter. Results are expressed as the percentage of injected activity per gram (% IA/g) and tumor-to-organ ratios were calculated.

serum proteins = assay type: in vitro ADME
Experimental: Thus, to have some predictive indications of the metabolic outcome of our compounds, the binding to serum proteins and the enzymatic biotransformation of ^99mTc1–3 in blood and tissue homogenates were assessed in vitro by incubating the purified compounds at 37 °C in human and mouse sera as well as in murine liver and kidney homogenates.
Protein Binding. The affinity of the ^99mTc(N) complexes toward the serum proteins was evaluated by chromatographic methods.
Upon incubation, 25 µL of each sample was withdrawn and loaded on a pre-spun (735× g for 2 min) Sephadex G-50 mini-column. The column was centrifuged at 735 × g for 1 min. The collected eluate and the column were counted in a NaI-scintillation counter. The protein-bound complex was calculated as the percentage of the total activity.

With [Tc(N)(H2NS-cRGDfK)(PNP3)]^+ [^99mTc1] the “cell uptake (sum of surface bound and internalized radioactivity)” value [1] was 1.77 ± 0.20 % cell uptake/10^6 cells, the M21/M21L ratio [2] was 1.83 and the M21/blood ratio [2] was 29.96. The M21/kidneys ratio [2] was 0.77, the M21/liver ratio [2] was 0.88 and the M21/lung ratio [2] was 2.53. The M21/muscle ratio [2] was 9.15, the M21L tumor uptake [2] was 1.73 ± 0.19 %IA/g and the M21 tumor uptake [2] was 3.2 ± 0.6 %IA/g and 3.17 ± 0.60 %IA/g. For the same substance, the Blood [2] was 0.07 ± 0.02 %IA/g, the Heart [2] was 0.47 ± 0.03 %IA/g and the Intestine [2] was 2.30 ± 0.10 %IA/g. The Kidneys [2] was 4.10 ± 0.37 %IA/g, the Liver [2] was 3.59 ± 0.31 %IA/g and the Lungs [2] was 1.25 ± 0.23 %IA/g. For the same substance, the Muscle [2] was 0.37 ± 0.04 %IA/g, the Spleen [2] was 1.61 ± 0.01 %IA/g and the Stomach [2] was 1.22 ± 0.15 %IA. For the same substance, the “% Protein Binding” value (serum proteins) was 14.95 ± 1.95%.
“[Tc(N)(H2NS-cRGDfK)(PNP3OH)]^+ [^99mTc3]” was tested, and the “cell uptake (sum of surface bound and internalized radioactivity)” value [1] was 1.73 ± 0.27 % cell uptake/10^6 cells, the M21/M21L ratio [2] was 5.60 and the M21/blood ratio [2] was 73.42. For the same substance, the M21/kidneys ratio [2] was 1.23, the M21/liver ratio [2] was 1.11 and the M21/lung ratio [2] was 2.98. The M21/muscle ratio [2] was 16.72, the M21L tumor uptake [2] was 0.70 ± 0.16 %IA/g and the M21 tumor uptake [2] was 3.9 ± 0.7 %IA/g and 3.92 ± 0.69 %IA/g. For the same substance, the Blood [2] was 0.05 ± 0.01 %IA/g, the Heart [2] was 0.44 ± 0.09 %IA/g and the Intestine [2] was 3.09 ± 0.62 %IA/g. The Kidneys [2] was 3.34 ± 0.18 %IA/g, the Liver [2] was 3.22 ± 0.24 %IA/g and the Lungs [2] was 1.32 ± 0.20 %IA/g. The Muscle [2] was 0.23 ± 0.03 %IA/g, the Spleen [2] was 1.43 ± 0.19 %IA/g and the Stomach [2] was 1.05 ± 0.14 %IA. For the same substance, the “% Protein Binding” value (serum proteins) was 7.91 ± 2.01%.
[Tc(N)(H2NS-cRGDfK)(PNP43)]^+ [^99mTc2] was tested, and the “cell uptake (sum of surface bound and internalized radioactivity)” value [1] was 1.65 ± 0.40 % cell uptake/10^6 cells, the M21/M21L ratio [2] was 2.57 and the M21/blood ratio [2] was 11.26. For the same substance, the M21/kidneys ratio [2] was 0.32, the M21/liver ratio [2] was 0.44 and the M21/lung ratio [2] was 1.04. For the same substance, the M21/muscle ratio [2] was 3.54, the M21L tumor uptake [2] was 0.42 ± 0.05 %IA/g and the M21 tumor uptake [2] was 1.1 ± 0.2 %IA/g and 1.08 ± 0.24 %IA/g. The Blood [2] was 0.12 ± 0.03 %IA/g, the Heart [2] was 0.48 ± 0.07 %IA/g and the Intestine [2] was 2.45 ± 0.29 %IA/g. The Kidneys [2] was 3.38 ± 0.36 %IA/g, the Liver [2] was 2.43 ± 0.23 %IA/g and the Lungs [2] was 1.04 ± 0.08 %IA/g. It also gave a Muscle [2] of 0.31 ± 0.05 %IA/g, a Spleen [2] of 1.26 ± 0.04 %IA/g and a Stomach [2] of 1.02 ± 0.16 %IA. For the same substance, the “% Protein Binding” value (serum proteins) was 13.63 ± 2.95%.

Source: paper PMC9029856, “Impact of Different [Tc(N)PNP]-Scaffolds on the Biological Properties of the Small cRGDfK Peptide: Synthesis, In Vitro and In Vivo Evaluations” (Molecules, 2022)
